Test results published in patent US20150307616A1 (APEXIGEN, published 2015).
Changes are numbered by the printed parent chain.

Key:
[1] = biological target: T1, human CD40 on the cell surface (human, UniProt P25942 21-277); assay: cell-based or functional assay
[2] = biological target: T1, human CD40 on the cell surface; assay: cell-based or functional assay; remark: listed apart in the source
human CD40 = biological target: T2, human CD40 (human, UniProt P25942 21-193, limits assumed); assay: method not stated
T2 construct: also called immobilized human CD40
T2 sequence (P25942 21-193 limits assumed): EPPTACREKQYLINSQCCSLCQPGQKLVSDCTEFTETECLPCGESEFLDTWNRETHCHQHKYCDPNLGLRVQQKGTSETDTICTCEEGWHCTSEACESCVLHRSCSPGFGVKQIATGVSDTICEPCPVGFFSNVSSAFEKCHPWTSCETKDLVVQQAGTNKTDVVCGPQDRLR

[3] = biological target: T1, human CD40 on the cell surface; assay: FACS on Ramos cells, 4 h at 37 C, Alexa 488 goat anti-human IgG
Description: (§1) In order to assess the target mediated-internalization of APX005 for evaluating its impact on ADCC activity, Ramos cells were incubated with APX005 for 4 h at 37° C., a temperature permissive for internalization, or at 4° C. for 30 minutes, a temperature at which internalization is minimized. Cells were washed with staining buffer, followed by incubation with Alexa 488 labeled goat anti-human IgG for an additional 30 minutes at 4° C. FACS analysis was performed to examine the level of APX005 on the cell surface.

[4] = biological target: T3, mouse CD40 (coated protein) (mouse, UniProt P27512 20-193, limits assumed); assay: direct ELISA by the text (1 ug/ml CD40 coated, goat anti-human IgG-HRP); the axis of the sheet is labelled MFI
T3 construct: Coated at 1 µg/ml on ELISA plates
T3 sequence (P27512 20-193 limits assumed): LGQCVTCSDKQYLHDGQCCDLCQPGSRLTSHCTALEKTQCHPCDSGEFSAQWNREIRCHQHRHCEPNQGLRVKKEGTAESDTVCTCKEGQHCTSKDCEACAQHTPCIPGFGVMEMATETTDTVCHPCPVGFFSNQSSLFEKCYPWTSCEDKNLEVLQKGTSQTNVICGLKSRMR
Description: Cross-reactivity was assessed by direct ELISA. A total of 1 μg/ml of human CD40, monkey CD40 or mouse CD40 was coated on ELISA plates followed by incubation with […] of APX005 or control IgG1. Antibodies bound to CD40 were detected using goat anti-human IgG conjugated with HRP. APX005 clearly crossreacts with monkey CD40 but not mouse CD40. (FIG. 11A)

[5] = biological target: T4, mouse CD40 on mouse A20 cells (mouse, UniProt P27512 20-289); assay: FACS on mouse A20 cells, goat anti-human IgG (H+L)-R-PE
T4 construct: whole, on cells; also called A20 cell line which expresses mouse CD40
T4 sequence (P27512 20-289): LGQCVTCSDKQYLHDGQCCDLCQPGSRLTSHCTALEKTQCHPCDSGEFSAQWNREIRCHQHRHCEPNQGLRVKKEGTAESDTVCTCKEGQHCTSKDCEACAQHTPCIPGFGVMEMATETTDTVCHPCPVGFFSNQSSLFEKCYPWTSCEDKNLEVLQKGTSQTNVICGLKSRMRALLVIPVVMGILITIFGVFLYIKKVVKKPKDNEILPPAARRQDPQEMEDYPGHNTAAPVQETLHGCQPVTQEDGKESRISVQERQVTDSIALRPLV
Description: Cross-reactivity of APX005 with mouse CD40 was further determined by FACS binding to a mouse A20 cell line which expresses mouse CD40. An aliquot of 0.5×10⁶ A20 cells was added to 96 well plates and incubated with 100 μl diluted rat anti-mouse CD40 antibody conjugated with PE, APX005 or IgG1 control antibodies. After washing, 100 μl Goat-anti human IgG (H+L) conjugated with R-PE (Southern Biotech CAT#2040-09) were added at 1:200 dilution in PBS to the sample and incubated for detection of APX005 and control human IgG1. A rat anti-mouse CD40 antibody conjugated with PE was used as positive control. Samples were re-suspended with 0.5 ml PBS and analyzed by FACS.

[6] = biological target: T1, human CD40 on the cell surface; assay: FACS on Ramos cells, 30 minutes at 4 C, Alexa 488 goat anti-human IgG
Description: as §1

T1 sequence (P25942 21-277): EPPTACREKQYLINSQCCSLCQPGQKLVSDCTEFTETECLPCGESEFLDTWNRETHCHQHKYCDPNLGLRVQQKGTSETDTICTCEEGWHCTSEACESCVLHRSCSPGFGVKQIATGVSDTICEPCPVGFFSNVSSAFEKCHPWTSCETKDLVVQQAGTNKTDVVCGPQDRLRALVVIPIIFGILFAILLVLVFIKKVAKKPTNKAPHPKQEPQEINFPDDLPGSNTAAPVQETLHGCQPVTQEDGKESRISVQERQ

B1: R-36 rabbit anti-CD40 antibody (antibody, V domains shown)
VH: QQQLVESGGGLVKPGASLTLTCKASGFSFSSTYWICWVRQAPGKGLEWIGCINSDDSGTNVYANWAKGRFTISKASSTTVTLQMTSLTAADTATYFCARYPIPGYHFNLWGPGTLVTVSS
VL: AYDMTQTPASVEVAVGGTVTIKCQASQNIYGYLFWYQQKPGQPPNLLIAEASKLPSGVPSRFKGSGSGTEYSLTISGVECADAATYYCQQSYSHINVDNIFGGGTEVVVK
**Q.** B1 was tested. Which “CD83 expression on human monocyte-derived DC (DC maturation assay)” value (“CD83 expression” below) [1] did it give?
**A.** > 50%

B2: 19-21 rabbit anti-CD40 antibody (antibody, V domains shown)
VH: QSLEESGGRLVTPGTPLTLTCTVSGFDLSSNAMNWVRQAPGKGLEWIGYITISGSAGYASWAKGRFTISKTSTTVDLKISSPTTEDTATYFCARGYNTMAIWGPGTLVTVSS
VL: AQVLTQTPSPVSAPVGGTVTINCQSSQNVLINNRLAWYQQKPGQPPKLLIYDASKLASGVPSRFKGSGSGTQFTLTISGVQCDDAATYYCQAGYSSGDGNAFGGGTEVVVK
**Q.** With B2 as the binder, how does the “CD83 expression” value [1] read?
**A.** > 50%

B3: c19-21 chimeric anti-CD40 antibody (antibody, V domains shown)
VH: B2 VH
VL: B2 VL
**Q.** With B3 as the binder, how does the “ADCC (% cytotoxicity of Ramos cell at 1 µg/ml)” value [2] read?
**A.** 26%

**Q.** And the “Pro-apoptosis activity (IC50)” value [2]?
**A.** 0.02 µg/mL

B4: 19-45 rabbit anti-CD40 antibody (antibody, V domains shown)
VH: QSVEESGGRLVTPGTPLTLNCTVSGFSLSSYDMNWVRQAPGKGLEWIGVIWNNGEIFYASWAKGRFTISKTSTTVDLKITSPSTEDTATYFCAGDADGGVVSYFHVWGPGTLVTVSS
VL: AYDMTQTPASVEVAVGGTVTIKCQASQTIYTYLAWYLQKPGQPPKLLIYEASKLASGVSSRFEGSGSGTQFTLTISGVQCDDAATYYCQQGYNSRHVDNVFGGGTEVVVK
**Q.** B4 was tested. Which “CD83 expression” value [1] did it give?
**A.** > 50%

B5: R-18 rabbit anti-CD40 antibody (antibody, V domains shown)
VH: QSLEESGGDLVKPGASLTLTCTASGIDFSSYYYMCWVRQAPGKGLEWIGCIYAGSGSTYYASWAKGRFTISKTSSTTVTLQMTSLTAADTATYFCARSGYNDGSYYNLWGPGTLVTVSS
VL: DIVMTQTPSSVEAAVGGTVTIKCQASQSIYTWLAWYQQKPGQPPKLLIYKASTLASGVPSRFKGSGSGTDYTLTISDLECDDAATYYCQRYSWNGSYGVSFGGGTEVVVR
**Q.** For B5, which “CD83 expression” value [1] is on record?
**A.** > 50%

B6: cR-8 chimeric anti-CD40 antibody (antibody, V domains shown)
VH: QSLEESGGDLVKPGASLTLTCTASGFSFSSTYVCWVRQAPGKGLEWIACIYTGDGTNYSASWAKGRFTISKPSSTTVTLQMTSLTPADTATYFCARPDITYGFAINFWGPGTLVTVSS
VL: DIVMTQTPSSASEPVGGTVTIKCQASQSISSRLAWYQQKPGQPPKLLIYRASTLASGVPSRFKGSGSGTEFTLTISDLECADAATYYCQCTGYGISWPIGGGTEVVVK
**Q.** With B6 as the binder, how does the “ADCC (% cytotoxicity of Ramos cell at 1 µg/ml)” value [2] read?
**A.** 33%

**Q.** What about the “Pro-apoptosis activity (IC50)” value [2] of the same binder?
**A.** 0.45 µg/mL

B7: R-9 rabbit anti-CD40 antibody (antibody, V domains shown)
VH: QSLEESGGDLVKPGASLTLTCTASRFSFSSTYMCWVRQAPGKGLEWIACTYTGSSGGTYYASWAKGRFTISQTSSTTVTLQLTGLTPADTATYFCARPDVGFDFAINFWGPGTLVTVSS
VL: B6 VL with P59S, E70Q, G94T, I99F
**Q.** How did the “CD83 expression” value [1] turn out when B7 was run?
**A.** > 50%

B8: R-3 rabbit anti-CD40 antibody (antibody, V domains shown)
VH: QSLEESGGDLVKPGASLTLTCTASGFSFSDSFWIAWVRQAPGKGLEWIGCIHALSSGSTYYANWARGRFTISKTSSTTVTLQMNSLTAADTATYFCARSYAGYADYNVATGLNLWGPGTLVTVSS
VL: DVVMTQTPSSASAAVGGTVTTKCQASQSIGSYLAWYQQKPGQRPKLLIYAASNLASGVPSRFKGSRSGTEYTLTISGVQREDAATYYCLGSFTGSDTTFGGGTELEIL
**Q.** How did the “CD83 expression” value [1] turn out when B8 was run?
**A.** > 50%

B9: cR-3 chimeric anti-CD40 antibody (antibody, V domains shown)
VH: B8 VH
VL: B8 VL
**Q.** With B9 as the binder, how does the “ADCC (% cytotoxicity of Ramos cell at 1 µg/ml)” value [2] read?
**A.** 30%

**Q.** And the “Pro-apoptosis activity (IC50)” value [2]?
**A.** 0.57 µg/mL

B10: 19-59 rabbit anti-CD40 antibody (antibody, V domains shown)
VH: QSVEESGGRLVTPGTPLTLTCTVSGFSLSDYVMRWVRQAPGKGLEWIGVISSAGNTYYATWAKDRFTISKTSTTVDLRIASPTTEDTATYFCARIWRPDDPTNSDIWGPGTLVTVSS
VL: DVVMTQTPSSTSAAVGGTVTIKCQASESISSSLAWYQQKPGQPPKLLIYYASDLASGVPSRFSGSRSGTEYTLTISGVQREDAATYYCLGGYATAAYRTAFGGGTELEIL
**Q.** B10 was tested. Which “CD83 expression” value [1] did it give?
**A.** > 50%

B11: APX005 humanized anti-CD40 antibody (antibody, IgG1, V domains shown)
VH: QVQLVESGGGVVQPGRSLRLSCAASGFSFSSTYVCWVRQAPGKGLEWIACIYTGDGTNYSASWAKGRFTISKDSSKNTVYLQMNSLRAEDTAVYFCARPDITYGFAINFWGPGTLVTVSS
VL: DIQMTQSPSSLSASVGDRVTIKCQASQSISSRLAWYQQKPGKPPKLLIYRASTLASGVPSRFSGSGSGTDFTLTISSLQPEDVATYYCQCTGYGISWPIGGGTKVEIK
notes: also called humanized R-8
**Q.** Which Kd (human CD40) does the source give for B11 here?
**A.** 0.96 nM

**Q.** And the “EC50 (read off the curve)” value [3]?
**A.** ~0.05 µg/mL

**Q.** Does B11 bind [4]?
**A.** no binding

**Q.** Does B11 bind [5]?
**A.** no binding (tested: 10000 ng/ml)

**Q.** And the “EC50 (read off the curve)” value [6]?
**A.** ~0.05 µg/mL

B12: R-6 rabbit anti-CD40 antibody (antibody, V domains shown)
VH: GGSLTLTGTASGFSFSSSYSMCWVRQAPGKGLEWIGCIDTGRGYTYHASGAKGRFTFSKTSSTTVTLQMTSLTAADTATYFCARSSYVRYDNRNYGFNLWGPGTLVTVSS
VL: DIVMTQTPASVEAAVGGTITINCQASESISSWLSWYQQKPGQRPKLLIYYTSNLASGVPSRFKGSGAGTDFTLTISDLECADAATYYCQSNYGSSSSTYYGFGGGTEVVVK
**Q.** For B12, which “CD83 expression” value [1] is on record?
**A.** > 50%

B13: R-24 rabbit anti-CD40 antibody (antibody, V domains shown)
VH: QSLEESGGDLVKPGASLTLTCTASGFSFSRGYYICWVRQAPGKGLEWIACIGAGSGGTYFASWAKGRFSISRTSSTTVTLQMTSLTAADTATYFCAREDAGNDDYGYARNLWGPGTLVTVSS
VL: DIVMTQTPASVSAAVGGTVTINCQASESAYTLLAWYQQKPGQPPKLLIYGASILESGVPSRFKGSGSGTDFTLTISDLECADAATYYCQSHYFGSSSGYANTFGGGTEVVVK
**Q.** How did the “CD83 expression” value [1] turn out when B13 was run?
**A.** > 50%

B14: R-16 rabbit anti-CD40 antibody (antibody, V domains shown)
VH: QSLEESGGGLVKPGGTLTLTCKASGFSLNYYWPCWVRQAPGKGLEWVACLNGGDSDTTVYARWAKGRFTISKASSTTVTLQMTSLTAADTATYFCARYIIPGYHFNLWGPGTLVTVSS
VL: AYDMTQTPASVSAAVGDTVTIKCQASQSISSYLYWYQQKPGQPPKLLIYQASKLASGVPSRFKGSGSGTEYTLTISDLECADVATYYCQQGYSHINVDNIFGGGFQVVVK
**Q.** For B14, which “CD83 expression” value [1] is on record?
**A.** > 50%

B15: cR-33 chimeric anti-CD40 antibody (antibody, V domains shown)
VH: QSLEESGGDLVKPGASLTLTCTASGFSFSSSYWICWVRQAPGKGLEWIACINTGSSVTTVYARWAKGRFTISKASSTTVTLQMTSLTAADTATYFCARYIIPGYNFNLWGPGTLVTVSS
VL: AYDMTQTPASVEVAVGGTVTINCQASQSISSYLYWYQQKPGQPPKLLIYDASKLASGVPSRFKGSGSGTQFTLTITGVECADAATYYCQQGYSHINVDNIFGGGTEVVVK
**Q.** Which results are given for B15?
**A.** ADCC (% cytotoxicity of Ramos cell at 1 µg/ml) [2]: 29%; Pro-apoptosis activity (IC50) [2]: 0.9 µg/mL

B16: R-33 rabbit anti-CD40 antibody (antibody, V domains shown)
VH: B15 VH
VL: B15 VL
**Q.** Which “CD83 expression” value [1] does the source give for B16 here?
**A.** > 50%
